Laboratory results reported in article PMC8977021, “bZIP transcription factors PcYap1 and PcRsmA link oxidative stress response to secondary metabolism and development in Penicillium chrysogenum”.
Where a chain is given by its changes, count along the chain named.

T1: PcYap1 (Penicillium chrysogenum Wis54-1255 (P. rubens Wis54-1255)) (UniProt B6HDY4)
T1 sequence: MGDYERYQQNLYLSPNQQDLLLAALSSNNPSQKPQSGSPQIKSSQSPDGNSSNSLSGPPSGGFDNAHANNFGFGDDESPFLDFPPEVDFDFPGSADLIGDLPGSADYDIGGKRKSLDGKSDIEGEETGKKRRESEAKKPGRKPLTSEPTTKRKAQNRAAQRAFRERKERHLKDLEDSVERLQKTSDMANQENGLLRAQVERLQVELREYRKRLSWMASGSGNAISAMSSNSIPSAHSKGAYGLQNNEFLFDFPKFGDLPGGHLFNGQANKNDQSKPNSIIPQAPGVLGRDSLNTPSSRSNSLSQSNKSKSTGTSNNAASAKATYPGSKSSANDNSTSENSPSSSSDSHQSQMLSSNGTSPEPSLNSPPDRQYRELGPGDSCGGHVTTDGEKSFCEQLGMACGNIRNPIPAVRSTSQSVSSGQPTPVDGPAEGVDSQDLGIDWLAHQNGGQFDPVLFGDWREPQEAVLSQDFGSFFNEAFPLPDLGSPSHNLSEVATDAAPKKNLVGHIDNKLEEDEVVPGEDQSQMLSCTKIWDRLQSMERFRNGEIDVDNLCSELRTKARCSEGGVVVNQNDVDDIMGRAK

T2: PcRsmA (Penicillium chrysogenum Wis54-1255 (P. rubens Wis54-1255)) (UniProt B6GZ21)
T2 sequence: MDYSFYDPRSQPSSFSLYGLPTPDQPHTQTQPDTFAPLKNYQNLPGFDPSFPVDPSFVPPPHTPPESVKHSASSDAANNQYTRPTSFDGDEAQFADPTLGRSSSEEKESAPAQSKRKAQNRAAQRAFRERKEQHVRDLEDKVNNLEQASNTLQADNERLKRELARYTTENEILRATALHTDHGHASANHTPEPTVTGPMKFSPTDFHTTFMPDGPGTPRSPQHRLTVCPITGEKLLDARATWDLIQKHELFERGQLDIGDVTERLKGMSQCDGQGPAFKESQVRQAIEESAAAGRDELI

T3: PcRsmA (Penicillium chrysogenum Wis54-1255 (P. …, UniProt B6GZ21 1-299))
T3 sequence: T2 sequence

T4: PcYap1 (Penicillium chrysogenum Wis54-1255 (P. …, UniProt B6HDY4 1-582))
T4 sequence: T1 sequence

B1: RsmA-2A (dsDNA)
DNA 1: CAGTAAGCATCTGGGCTGCAAGCGTATA
DNA 2: TATACGCTTGCAGCCCAGATGCTTACTG
B2: PTA1-WT (dsDNA)
DNA 1: GCCAGTGTAAAATTAGTAACCGTATCTC
DNA 2: GAGATACGGTTACTAATTTTACACTGGC
B3: PTA1-M1 (dsDNA)
DNA 1: GCCAGTGTAAAACTAGTCACCGTATCTC
DNA 2: GAGATACGGTGACTAGTTTTACACTGGC
B4: AP1-brlA (dsDNA)
DNA 1: AAAACAATACAATTTACTAAAGTCCACTGGGCA
DNA 2: TGCCCAGTGGACTTTAGTAAATTGTATTGTTTT
B5: AP1-brlA-Mut (dsDNA)
DNA 1: B4 DNA 1 with T15G, A20G
DNA 2: B4 DNA 2 with T14C, A19C
B6: AflR-RsmA (dsDNA)
DNA 1: CGACTGACACAAGAAATAACAATTC
DNA 2: GAATTGTTATTTCTTGTGTCAGTCG
B7: RsmA-2B (dsDNA)
DNA 1: CAGTAAGCATCTGGGCTGCAAGCGTATAATGTCTCCAG
DNA 2: CTGGAGACATTATACGCTTGCAGCCCAGATGCTTACTG
B8: RsmA-2 (dsDNA)
DNA 1: CAGTAAGCATCTGGGCTGCAAGCGTATAATGTCTCCAGGTTGTCTCAGCATAAACA
DNA 2: TGTTTATGCTGAGACAACCTGGAGACATTATACGCTTGCAGCCCAGATGCTTACTG
B9: penDE-CRE123 (dsDNA)
DNA 1: AGGTCCTGCATTAGCGTACGCCCCAGGTTTAGATCAAAGTTACGTAATTTATATGTA
DNA 2: TACATATAAATTACGTAACTTTGATCTAAACCTGGGGCGTACGCTAATGCAGGACCT
B10: penDE-CRE123-M1 (dsDNA)
DNA 1: B9 DNA 1 with T40C, T45A
DNA 2: B9 DNA 2 with A13T, A18G
B11: RsmA-2C (dsDNA)
DNA 1: CTCCAGGTTGTCTCAGCATAAACA
DNA 2: TGTTTATGCTGAGACAACCTGGAG

Legend:
[1] = target: T1, PcYap1 (Penicillium chrysogenum Wis54-1255 (P. rubens Wis54-1255)); assay: EMSA; settings: LightShift binding buffer 1X, about 10% glycerol, 5 mM MgCl2, 20 fmol biotin probe, 10 ug protein, 20 uL, room temperature 20 min; 5% native PAGE in 0.5X TBE …
[2] = target: T2, PcRsmA (Penicillium chrysogenum Wis54-1255 (P. rubens Wis54-1255)); assay: EMSA; settings: LightShift binding buffer 1X, about 10% glycerol, 5 mM MgCl2, 20 fmol biotin probe, 10 ug protein, 20 uL, room temperature 20 min; 5% native PAGE in 0.5X TBE …
PcRsmA = target: T3, PcRsmA; assay: EMSA; LightShift binding buffer 1X, about 10% glycerol, 5 mM MgCl2, 20 fmol biotin probe, 10 ug protein, 20 uL, room temperature 20 min; 5% native PAGE in 0.5X TBE; pH and salt not given; settings: protein: recombinant; tags: C-terminal c-myc-6xHis; chain copies: 2; label: 3' biotin; blunt
PcYap1 = target: T4, PcYap1; assay: as above; settings: protein: recombinant; tags: C-terminal c-myc-6xHis; chain copies: 2; label: 3' biotin; blunt

Row | Molecule | binding [1] | binding [2] | binding result (PcRsmA) | binding result (PcYap1)
1 | TGTTTATGCTGAGACAACCTGGAGACATTATACGCTTGCAGCCCAGATGCTTACTGGATGGGGCCGCTGGAGCCAGTGTAAAATTAGTAACCGTATCTCGAAGTCGGAGGGTCTTTGGTGGTCTGAGATTTCAGTCGGTCCGCACCGTGGCATTTGCAGACGGTGCGATCAGGCCAATCGTTGATGCTCGG (double strand) [probe 5] | binds | binds | – | –
2 | AACATCGCCGTCGTTGAGTGCACGTTGCCTACTCTCTCGTGGCTTGGCTGGGCCCACGAGCCCGATTGACTCGACGGTGTTACTTGGGTATCTATGGCCCCGTTTTCTGGCACGGTAATGATAAGTACTTACTAGTCTTCGAGCGGGGGAGTGTTGCTCTGCCCGAGCATCAACGATTGGCCTGA (double strand) [probe 4] | no binding | no binding | – | –
3 | CCGAGCATCAACGATTGGCCTGATCGCACCGTCTGCAAATGCCACGGTGCGGACCGACTGAAATCTCAGACCACCAAAGACCCTCCGACTTCGAGATACGG (double strand) [dwPta1] | – | no binding | – | –
4 | B1 | – | – | no binding | –
5 | B2 | – | – | no binding | binds
6 | B3 | – | – | no binding | no binding
7 | B4 | – | – | no binding | binds
8 | B5 | – | – | no binding | no binding
9 | B6 | – | – | binds | –
10 | B7 | – | – | no binding | –
11 | B8 | – | – | binds | –
12 | B9 | – | – | binds | no binding
13 | B10 | – | – | no binding | –
14 | B11 | – | – | binds | –
